Measured values from publication PMC11312540 (bioRxiv, 2024).

Molecular target: SH3 domain of Src (residues 83–141) with C-terminal FLAG-tag (chicken, UniProt P00523 83-141)
Test: bimane fluorescence

B1: βarr1-MC-393 V70C labeled with monobromobimane (domain or fragment, rat, UniProt P29066 1-393, looked up)
chain: MGDKGTRVFKKASPNGKLTVYLGKRDFVDHIDLVDPVDGVVLVDPEYLKERRVYVTLTAAFRYGREDLDCLGLTFRKDLFVANVQSFPPAPEDKKPLTRLQERLIKKLGEHAYPFTFEIPPNLPSSVTLQPGPEDTGKAIGVDYEVKAFVAENLEEKIHKRNSVRLVIRKVQYAPERPGPQPTAETTRQFLMSDKPLHLEASLDKEIYYHGEPISVNVHVTNNTNKTVKKIKISVRQYADIVLFNTAQYKVPVAMEEADDTVAPSSTFSKVYTLTPFLANNREKRGLALDGKLKHEDTNLASSTLLREGANREILGIIVSYKVKVKLVVSRGGLLGDLASSDVAVELPFTLMHPKPKEEPPHREVPESETPVDTNLIELDTNDDDIVFEDFAR
modifications: monobromobimane (mBr) on C70
Does B1 bind?
Result: binds
